According to patent US20230266303A1, “SYSTEM” (GTINVENT LIMITED, priority 2020, published 2023):

Experiments:
dSH-SY5Y cells [1] = assay: ReadyProbes cell viability assay (cell death) after exposure to dGAE; format: cell-based; settings: 24 h incubation; for percentage cell death: 1 μM, buffer only 21.6±1.6%
Method: (§1) Undifferentiated SH-SY5Y human neuroblastoma cells were grown in Dulbecco's Modified Eagle Medium/Nutrient Mixture F-12 (DMEM/F-12) supplemented with 10% Foetal Calf Serum (FCS), 1% Penicillin/Streptomycin (P/S) and 1% L-glutamine. For differentiation, SH-SY5Y cells were plated at a density of 50,000 cells per well in 24-well plates or 300,000 cells per well in 6-well plates. For immunofluorescence, cells were plated onto Menzel-Gläser coverslips (Thermo Scientific). For live-cell imaging, cells were plated on 35-mm dishes on a 1.5-mm coverslip (Mattek). On the first day of differentiation, media was replaced with low-serum culture media (DMEM/F-12 containing 1% FCS, 1% P/S and 1% L-glutamine) containing 10 μM all-trans retinoic acid (RA) (Sigma-Aldrich) and cells were incubated for 48 h. On day 3, this process was repeated with fresh RA and cells were incubated for a further 48 h. On day 5, the cells were washed once in serum-free culture media to remove traces of serum. […] Differentiated cells (dSH-SY5Y) were ready to use for experiments on day 7. […]
Following the addition of dGAE, cell viability was measured using ReadyProbes® Cell Viability Imaging Kit (Life Technologies). […] DAPI fluorescence was captured using a G 365 excitation filter and a LP 420 emission filter with a FT 395 dichroic. Green fluorescence was captured using a FITC filter set (BP 450-490 excitation filter, BP 515-565 emission filter and FT 510 dichroic). Identical acquisition settings were used for all replicates and images were analysed using FIJI. Six fields of view were taken per sample and an average of 4500 cells were analysed per condition. The proportion of buffer-treated cell death was quantified by converting the images to grayscale followed by manually adjusting the threshold and converting it into a binary image to highlight live DAPI-stained cells. The number of cells was automatically counted. The dead cells were counted in the same way and cell death was expressed as a percentage of buffer-treated cells. […]

dSH-SY5Y cells [2] = assay: Internalisation of dGAE-488 into cells by confocal microscopy; format: cell-based, human; settings: soluble form, 5 μM dGAE-488, live confocal imaging t=0 h to 14 h
Method: as §1
FIJI (https://fiji.sc) imaging processing package (J. Schindelin et al., Nat. Methods, vol. 9, no. 7, pp. 676-682, (2012)) was used for all image analysis. For quantification of fluorescence intensities, images were Z-projected to maximal intensity. […] Area-integrated intensity and mean grey value were measured as well as three selections from around the cell with no fluorescence (background). The corrected total cell fluorescence (CTCF) was then calculated using the equation: […]
For quantification of internalised dGAE-488, a focal plane from the middle of the cell that contained maximal DAPI fluorescence was selected and subjected to analysis.
The uptake of soluble and aggregated dGAE into dSH-SY5Y cells was investigated in order to examine whether aggregation state affects the efficiency of internalisation. The labelled dGAE-488 form was used to permit uptake to be visualised and measured having corrected for total cell fluorescence. […]

dGAE: recombinant truncated tau, 95 residues fragment of Tau (2N4R), Ile-297 to Glu-391, SEQ ID NO: 4
percentage cell death (dSH-SY5Y cells [1]; aggregated dGAE (100 μM agitated 72 h)): 34±2.9%
percentage cell death (dSH-SY5Y cells [1]; soluble dGAE (0 h, no agitation)): 24.1±1.2%
cell death on increasing concentration (dSH-SY5Y cells [1]; soluble dGAE up to 20 μM): no further increase in cell death
incubation time at which internalised protein is detected in cells (dSH-SY5Y cells [2]): ≤ 2 h
